Test results: IntAct's records for PubMed 23542155

B1: Ligand-dependent nuclear receptor-interacting factor 1 (Homo sapiens), Q5T3J3 (parent)
chain: MSNNLRRVFLKPAEENSGNASRCVSGCMYQVVQTIGSDGKNLLQLLPIPKSSGNLIPLVQSSVMSDALKGNTGKPVQVTFQTQISSSSTSASVQLPIFQPASSSNYFLTRTVDTSEKGRVTSVGTGNFSSSVSKVQSHGVKIDGLTMQTFAVPPSTQKDSSFIVVNTQSLPVTVKSPVLPSGHHLQIPAHAEVKSVPASSLPPSVQQKILATATTSTSGMVEASQMPTVIYVSPVNTVKNVVTKNFQNIYPKPVTEIAKPVILNTTQIPKNVATETQLKGGQHSQAAPVKWIFQDNLQPFTPSLVPVKSSNNVASKILKTFVDRKNLGDNTINMPPLSTIDPSGTRSKNMPIKDNALVMFNGKVYLLAKKGTDVLPSQIDQQNSVSPDTPVRKDTLQTVSSSPVTEISREVVNIVLAKSKSSQMETKSLSNTQLASMANLRAEKNKVEKPSPSTTNPHMNQSSNYLKQSKTLFTNPIFPVGFSTGHNAPRKVTAVIYARKGSVLQSIEKISSSVDATTVTSQQCVFRDQEPKIHNEMASTSDKGAQGRNDKKDSQGRSNKALHLKSDAEFKKIFGLTKDLRVCLTRIPDHLTSGEGFDSFSSLVKSGTYKETEFMVKEGERKQQNFDKKRKAKTNKKMDHIKKRKTENAYNAIINGEANVTGSQLLSSILPTSDVSQHNILTSHSKTRQEKRTEMEYYTHEKQEKGTLNSNAAYEQSHFFNKNYTEDIFPVTPPELEETIRDEKIRRLKQVLREKEAALEEMRKKMHQK

Variants of: B1
Conditions: with cbx5_human CBX5, P45973
cbx5_human CBX5, P45973, sequence (P45973 whole entry): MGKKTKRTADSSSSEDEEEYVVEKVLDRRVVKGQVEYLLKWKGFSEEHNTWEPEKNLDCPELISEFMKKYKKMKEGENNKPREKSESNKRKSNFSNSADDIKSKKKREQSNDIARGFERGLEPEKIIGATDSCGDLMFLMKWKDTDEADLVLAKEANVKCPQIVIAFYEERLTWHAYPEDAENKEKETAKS

Variant	effect of a mutation on the interaction
V582D;L584E	disrupting interaction strength
